Test results from US20230181639A1 (published 2023).

Legend:
[1] = biological target: T1, EBV latent membrane protein LMP2 (wild-type epitope, LSK; as in SEQ ID NO: 27) peptide on HLA-A*11:01 (human); test: multimer staining
T1 peptide: SSCSSCPLSK

[2] = biological target: T2, EBV latent membrane protein LMP2 (mutant-type epitope, LTK; as in SEQ ID NO: 28) peptide on HLA-A*11:01 (human); test: multimer staining
T2 peptide: SSCSSCPLTK

B1: E318 (TCR, V domains shown)
Valpha: GENVEQHPSTLSVQEGDSAVIKCTYSDSASNYFPWYKQELGKRPQLIIDIRSNVGEKKDQRIAVTLNKTAKHFSLHITETQPEDSAVYFCAASNRDDKIIFGKGTRLHILP
Vbeta: DAGVIQSPRHEVTEMGQEVTLRCKPISGHNSLFWYRQTMMRGLELLIYFNNNVPIDDSGMPEDRFSAKMPNASFSTLKIQPSEPRDSAVYFCASSLGAGHLWGYTFGSGTRLTVV
binding result [1]: recognises | binding result [2]: recognises

B2: E316 (TCR, V domains shown)
Valpha: AQKITQTQPGMFVQEKEAVTLDCTYDTSDQSYGLFWYKQPSSGEMIFLIYQGSYDEQNATEGRYSLNFQKARKSANLVISASQLGDSAMYFCAMVSGAGGGADGLTFGKGTHLIIQP
Vbeta: DGGITQSPKYLFRKEGQNVTLSCEQNLNHDAMYWYRQDPGQGLRLIYYSQIVNDFQKGDIAEGYSVSREKKESFPLTVTSAQKNPTAFYLCASSIGVGLSNTEAFFGQGTRLTVV
binding result [1]: recognises | binding result [2]: recognises

B3: E315 (TCR, V domains shown)
Valpha: KQEVTQIPAALSVPEGENLVLNCSFTDSAIYNLQWFRQDPGKGLTSLLLIQSSQREQTSGRLNASLDKSSGRSTLYIAASQPGDSATYLCAGKTSYDKVIFGPGTSLSVIP
Vbeta: EAGVAQSPRYKIIEKRQSVAFWCNPISGHATLYWYQQILGQGPKLLIQFQNNGVVDDSQLPKDRFSAERLKGVDSTLKIQPAKLEDSAVYLCASSVFPTSVEQYFGPGTRLTVT
binding result [1]: recognises | binding result [2]: recognises

B4: E149 (TCR, V domains shown)
Valpha: GIQVEQSPPDLILQEGANSTLRCNFSDSVNNLQWFHQNPWGQLINLFYIPSGTKQNGRLSATTVATERYSLLYISSSQTTDSGVYFCAVVDNNDMRFGAGTRLTVKP
Vbeta: DTEVTQTPKHLVMGMTNKKSLKCEQHMGHRAMYWYKQKAKKPPELMFVYSYEKLSINESVPSRFSPECPNSSLLNLHLHALQPEDSALYLCASSPGRWYEQFFGPGTRLTVL
binding result [1]: recognises | binding result [2]: recognises
